{
  "source": "IntAct's records for PubMed 25910212",
  "parents": {"B1": {"name": "U4/U6 small nuclear ribonucleoprotein Prp31 (Homo sapiens), Q8WWY3 (parent)", "chain": "MSLADELLADLEEAAEEEEGGSYGEEEEEPAIEDVQEETQLDLSGDSVKTIAKLWDSKMFAEIMMKIEEYISKQAKASEVMGPVEAAPEYRVIVDANNLTVEIENELNIIHKFIRDKYSKRFPELESLVPNALDYIRTVKELGNSLDKCKNNENLQQILTNATIMVVSVTASTTQGQQLSEEELERLEEACDMALELNASKHRIYEYVESRMSFIAPNLSIIIGASTAAKIMGVAGGLTNLSKMPACNIMLLGAQRKTLSGFSSTSVLPHTGYIYHSDIVQSLPPDLRRKAARLVAAKCTLAARVDSFHESTEGKVGYELKDEIERKFDKWQEPPPVKQVKPLPAPLDGQRKKRGGRRYRKMKERLGLTEIRKQANRMSFGEIEEDAYQEDLGFSLGHLGKSGSGRVRQTQVNEATKARISKTLQRTLQKQSVVYGGKSTIRDRSSGTASSVAFTPLQGLEIVNPQAAEKKVAEANQKYFSSMAEFLKVKGEKSGLMST", "partner": "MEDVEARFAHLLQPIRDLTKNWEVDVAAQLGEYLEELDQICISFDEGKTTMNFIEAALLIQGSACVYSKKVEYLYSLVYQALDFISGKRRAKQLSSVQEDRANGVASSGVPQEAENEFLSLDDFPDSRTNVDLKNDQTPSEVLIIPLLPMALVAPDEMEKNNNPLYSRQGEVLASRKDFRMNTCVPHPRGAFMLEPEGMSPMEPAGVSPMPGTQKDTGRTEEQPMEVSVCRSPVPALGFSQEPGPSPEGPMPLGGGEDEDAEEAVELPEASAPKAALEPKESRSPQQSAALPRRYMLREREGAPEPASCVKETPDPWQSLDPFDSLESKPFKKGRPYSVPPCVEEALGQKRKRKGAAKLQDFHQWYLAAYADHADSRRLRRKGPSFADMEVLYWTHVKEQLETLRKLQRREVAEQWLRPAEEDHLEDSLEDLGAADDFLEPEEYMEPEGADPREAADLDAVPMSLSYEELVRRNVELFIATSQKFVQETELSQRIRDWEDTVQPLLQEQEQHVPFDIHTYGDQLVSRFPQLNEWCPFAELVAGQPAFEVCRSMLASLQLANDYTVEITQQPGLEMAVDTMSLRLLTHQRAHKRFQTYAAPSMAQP"}, "B2": {"name": "Serotonin N-acetyltransferase (Homo sapiens), Q16613 (parent)", "chain": "MSTQSTHPLKPEAPRLPPGIPESPSCQRRHTLPASEFRCLTPEDAVSAFEIEREAFISVLGVCPLYLDEIRHFLTLCPELSLGWFEEGCLVAFIIGSLWDKERLMQESLTLHRSGGHIAHLHVLAVHRAFRQQGRGPILLWRYLHHLGSQPAVRRAALMCEDALVPFYERFSFHAVGPCAITVGSLTFMELHCSLRGHPFLRRNSGC"}, "B3": {"name": "EF-hand domain-containing protein 1 (Homo sapiens), Q5JVL4 (parent)", "chain": "MVSNPVHGLPFLPGTSFKDSTKTAFHRSQTLSYRNGYAIVRRPTVGIGGDRLQFNQLSQAELDELASKAPVLTYGQPKQAPPADFIPAHVAFDKKVLKFDAYFQEDVPMSTEEQYRIRQVNIYYYLEDDSMSVIEPVVENSGILQGKLIKRQRLAKNDRGDHYHWKDLNRGINITIYGKTFRVVDCDQFTQVFLESQGIELNPPEKMALDPYTELRKQPLRKYVTPSDFDQLKQFLTFDKQVLRFYAIWDDTDSMYGECRTYIIHYYLMDDTVEIREVHERNDGRDPFPLLMNRQRVPKVLVENAKNFPQCVLEISDQEVLEWYTAKDFIVGKSLTILGRTFFIYDCDPFTRRYYKEKFGITDLPRIDVSKREPPPVKQELPPYNGFGLVEDSAQNCFALIPKAPKKDVIKMLVNDNKVLRYLAVLESPIPEDKDRRFVFSYFLATDMISIFEPPVRNSGIIGGKYLGRTKVVKPYSTVDNPVYYGPSDFFIGAVIEVFGHRFIILDTDEYVLKYMESNAAQYSPEALASIQNHVRKREAPAPEAESKQTEKDPGVQELEALIDTIQKQLKDHSCKDNIREAFQIYDKEASGYVDRDMFFKICESLNVPVDDSLVKELIRMCSHGEGKINYYNFVRAFSN", "partner": "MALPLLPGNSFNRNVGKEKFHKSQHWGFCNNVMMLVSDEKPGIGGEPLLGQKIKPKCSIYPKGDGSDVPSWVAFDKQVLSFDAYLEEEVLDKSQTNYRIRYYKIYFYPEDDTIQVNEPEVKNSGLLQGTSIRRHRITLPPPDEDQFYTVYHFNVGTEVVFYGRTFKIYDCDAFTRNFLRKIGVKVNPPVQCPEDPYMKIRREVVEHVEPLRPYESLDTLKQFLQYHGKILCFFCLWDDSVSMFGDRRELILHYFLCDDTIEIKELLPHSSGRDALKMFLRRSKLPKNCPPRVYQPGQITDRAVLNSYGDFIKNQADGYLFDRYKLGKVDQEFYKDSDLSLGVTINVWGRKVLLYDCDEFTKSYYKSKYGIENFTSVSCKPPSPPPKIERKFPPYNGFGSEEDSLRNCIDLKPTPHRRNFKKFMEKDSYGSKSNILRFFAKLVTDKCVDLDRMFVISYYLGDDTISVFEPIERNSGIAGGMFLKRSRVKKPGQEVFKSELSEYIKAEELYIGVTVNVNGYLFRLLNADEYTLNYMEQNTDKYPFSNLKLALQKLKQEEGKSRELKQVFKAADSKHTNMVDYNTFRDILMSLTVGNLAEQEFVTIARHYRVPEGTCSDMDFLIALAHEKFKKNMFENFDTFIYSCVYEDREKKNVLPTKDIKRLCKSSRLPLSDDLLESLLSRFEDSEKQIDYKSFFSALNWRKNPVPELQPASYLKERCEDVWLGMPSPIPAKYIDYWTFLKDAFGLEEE"}},
  "data": [
    {"variants_of": "B1", "settings": "with cndh2_human NCAPH2, Q6IBW4", "values": [
      {"variant": "L107V", "effect of a mutation on the interaction": "with no effect"}
    ]},
    {"variants_of": "B2", "settings": "with bhe40_human BHLHE40, O14503", "values": [
      {"variant": "A129T", "effect of a mutation on the interaction": "disrupting interaction strength"},
      {"variant": "T3M", "effect of a mutation on the interaction": "with no effect"}
    ]},
    {"variants_of": "B2", "settings": "with mdfi_human MDFI", "values": [
      {"variant": "A129T", "effect of a mutation on the interaction": "with no effect"},
      {"variant": "T3M", "effect of a mutation on the interaction": "with no effect"}
    ]},
    {"variants_of": "B3", "settings": "with efhc2_human EFHC2, Q5JST6", "values": [
      {"variant": "P77T", "effect of a mutation on the interaction": "disrupting interaction strength"},
      {"variant": "M448T", "effect of a mutation on the interaction": "with no effect"},
      {"variant": "R159W", "effect of a mutation on the interaction": "with no effect"},
      {"variant": "R221H", "effect of a mutation on the interaction": "disrupting interaction strength"},
      {"variant": "T508R", "effect of a mutation on the interaction": "with no effect"},
      {"variant": "A394S", "effect of a mutation on the interaction": "disrupting interaction strength"}
    ]}
  ]
}
